Reference: IntAct's records for PubMed 23893131

B1: Glia maturation factor gamma (Mus musculus), Q9ERL7 (parent)
chain: MSDSLVVCEVDPELKETLRKFRFRKETNNAAIIMKVDKDRQMVVLEDELQNISPEELKLELPERQPRFVVYSYKYVHDDGRVSYPLCFIFSSPVGCKPEQQMMYAGSKNRLVQTAELTKVFEIRTTDDLTETWLKEKLAFFR

Variants of: B1
Details: with arpc2_bovin ARPC2, Q3MHR7

effect of a mutation on the interaction	Variant
decreasing interaction strength	D128K
decreasing interaction strength	R124E
decreasing interaction strength	M102A
